Experimental data published in article PMC10397247.
Values belong to the binder of their own block, whether it stands above or below them.

Legend:
[1] = biological target: T1, APC5531-AA; assay: two-hybrid library CCmax; details: mean of both orientations;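 note: natural log of median RNA to DNA barcode read ratio; higher means stronger binding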
T1 chain: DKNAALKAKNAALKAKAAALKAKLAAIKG

[2] = biological target: T2, APC3354-AA; assay: two-hybrid library CCmax;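 note: natural log of median RNA to DNA barcode read ratio; higher means stronger binding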
T2 chain: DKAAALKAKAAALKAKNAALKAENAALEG

[3] = biological target: T3, APC6088-AA; assay: two-hybrid library CCmax; details: mean of both orientations;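 note: natural log of median RNA to DNA barcode read ratio; higher means stronger binding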
T3 chain: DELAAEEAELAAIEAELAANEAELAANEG

[4] = biological target: T4, APC5009-AA; assay: two-hybrid library CCmax; details: mean of both orientations;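 note: natural log of median RNA to DNA barcode read ratio; higher means stronger binding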
T4 chain: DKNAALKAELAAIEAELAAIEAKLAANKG

[5] = biological target: T5, APC8401-AA; assay: two-hybrid library CCmax; details: mean of both orientations;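 note: natural log of median RNA to DNA barcode read ratio; higher means stronger binding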
T5 chain: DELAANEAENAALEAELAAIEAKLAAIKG

[6] = biological target: T6, APC3881-AA; assay: two-hybrid library CCmax; details: mean of both orientations;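 note: natural log of median RNA to DNA barcode read ratio; higher means stronger binding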
T6 chain: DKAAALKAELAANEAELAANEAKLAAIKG

[7] = biological target: T7, APC8516-AA; assay: two-hybrid library CCmax; details: mean of both orientations
T7 chain: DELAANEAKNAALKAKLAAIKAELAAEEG

[8] = biological target: T8, APC4336-AA; assay: two-hybrid library CCmax; details: mean of both orientations
T8 chain: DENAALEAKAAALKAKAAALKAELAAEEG

[9] = biological target: T9, APC7524-AA; assay: two-hybrid library CCmax; details: mean of both orientations
T9 chain: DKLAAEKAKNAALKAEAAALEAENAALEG

[10] = biological target: T10, APC542-AA; assay: two-hybrid library CCmax; details: mean of both orientations
T10 chain: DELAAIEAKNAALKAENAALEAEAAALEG

[11] = biological target: T11, APC9182-AA; assay: two-hybrid library CCmax; details: mean of both orientations
T11 chain: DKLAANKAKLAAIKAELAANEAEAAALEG

[12] = biological target: T12, APC9806-AA; assay: two-hybrid library CCmax; details: mean of both orientations
T12 chain: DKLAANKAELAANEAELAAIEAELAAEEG

[13] = biological target: T13, APC9291-AA; assay: two-hybrid library CCmax; details: mean of both orientations
T13 chain: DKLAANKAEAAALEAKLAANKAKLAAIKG

[14] = biological target: T14, APC4100-AA; assay: two-hybrid library CCmax; details: mean of both orientations
T14 chain: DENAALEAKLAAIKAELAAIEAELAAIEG

[15] = biological target: T15, APC9141-AA; assay: two-hybrid library CCmax; details: mean of both orientations
T15 chain: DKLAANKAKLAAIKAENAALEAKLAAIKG

[16] = biological target: T16, 4H390-AA; assay: two-hybrid library CCmax; details: mean of both orientations
T16 chain: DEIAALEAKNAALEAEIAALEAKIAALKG

[17] = biological target: T17, 4H3134-AA; assay: two-hybrid library CCmax
T17 chain: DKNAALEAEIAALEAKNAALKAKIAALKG

[18] = biological target: T18, 4H3625-AA; assay: two-hybrid library CCmax; details: mean of both orientations
T18 chain: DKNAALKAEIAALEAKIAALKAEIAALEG

[19] = biological target: T19, 4H87-AA; assay: two-hybrid library CCmax; details: mean of both orientations
T19 chain: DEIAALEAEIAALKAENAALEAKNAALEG

[20] = biological target: T20, 4H775-AA; assay: two-hybrid library CCmax; details: mean of both orientations
T20 chain: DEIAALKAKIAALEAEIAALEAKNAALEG

[21] = biological target: T21, 4H3409-AA; assay: two-hybrid library CCmax; details: mean of both orientations
T21 chain: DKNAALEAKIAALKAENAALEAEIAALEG

[22] = biological target: T22, 4H510-AA; assay: two-hybrid library CCmax; details: mean of both orientations
T22 chain: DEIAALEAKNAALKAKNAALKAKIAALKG

[23] = biological target: T23, 4H816-AA; assay: two-hybrid library CCmax; details: mean of both orientations
T23 chain: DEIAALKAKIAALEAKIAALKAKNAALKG

[24] = biological target: T24, 4H3940-AA; assay: two-hybrid library CCmax; details: mean of both orientations
T24 chain: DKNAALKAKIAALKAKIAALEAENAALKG

[25] = biological target: T25, 4H4001-bN; assay: two-hybrid library CCNG1
T25 chain: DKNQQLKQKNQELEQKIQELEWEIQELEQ

[26] = biological target: T26, 4H3843-bN; assay: two-hybrid library CCNG1
T26 chain: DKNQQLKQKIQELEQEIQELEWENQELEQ

[27] = biological target: T27, 4H797-bN; assay: two-hybrid library CCNG1
T27 chain: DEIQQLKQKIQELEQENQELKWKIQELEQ

[28] = biological target: T28, 4H918-bN; assay: two-hybrid library CCNG1
T28 chain: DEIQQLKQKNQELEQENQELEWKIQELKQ

[29] = biological target: T29, 4H754-bN; assay: two-hybrid library CCNG1
T29 chain: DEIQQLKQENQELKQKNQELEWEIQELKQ

[30] = biological target: T30, 4H462-bN; assay: two-hybrid library CCNG1
T30 chain: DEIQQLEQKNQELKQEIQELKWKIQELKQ

[31] = biological target: T31, 4H3782-bN; assay: two-hybrid library CCNG1
T31 chain: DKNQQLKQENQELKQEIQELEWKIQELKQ

[32] = biological target: T32, 4H72-bN; assay: two-hybrid library CCNG1
T32 chain: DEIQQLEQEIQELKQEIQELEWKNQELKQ

[33] = biological target: T33, 4H717-bN; assay: two-hybrid library CCNG1
T33 chain: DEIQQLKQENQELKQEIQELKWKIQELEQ

[34] = biological target: T34, 4H568-bN; assay: two-hybrid library CCNG1
T34 chain: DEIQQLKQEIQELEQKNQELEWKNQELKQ

[35] = biological target: T35, 4H967-bN; assay: two-hybrid library CCNG1
T35 chain: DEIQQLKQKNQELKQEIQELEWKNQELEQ

[36] = biological target: T36, 4H607-bN; assay: two-hybrid library CCNG1
T36 chain: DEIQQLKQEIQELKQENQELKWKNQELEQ

[37] = biological target: T37, 4H953-bN; assay: two-hybrid library CCNG1
T37 chain: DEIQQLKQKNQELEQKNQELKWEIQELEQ

[38] = biological target: T38, 4H883-bN; assay: two-hybrid library CCNG1
T38 chain: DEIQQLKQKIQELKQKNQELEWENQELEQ

[39] = biological target: T39, 4H687-bN; assay: two-hybrid library CCNG1
T39 chain: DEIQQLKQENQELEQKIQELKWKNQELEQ

[40] = biological target: T40, 4H908-bN; assay: two-hybrid library CCNG1
T40 chain: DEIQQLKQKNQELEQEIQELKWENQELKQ

[41] = biological target: T41, 4H3855-bN; assay: two-hybrid library CCNG1
T41 chain: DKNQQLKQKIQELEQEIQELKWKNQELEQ

[42] = biological target: T42, 4H454-bN; assay: two-hybrid library CCNG1
T42 chain: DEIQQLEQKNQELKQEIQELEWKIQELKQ

Binder: DKNQQLKQENQELKQEIQELEWKIQELKQ [4H3782-bN]
- interaction score [25]: 0.0598
- interaction score [26]: 0.479
- interaction score [27]: 0.0484
- interaction score [28]: -0.56
- interaction score [29]: 0.109
- interaction score [30]: 0.194
- interaction score [31]: -1.91
- interaction score [32]: -0.393
- interaction score [33]: -0.43
- interaction score [34]: -0.456
- interaction score [35]: -0.314
- interaction score [36]: -0.461
- interaction score [37]: -0.576
- interaction score [38]: -1.27
- interaction score [39]: 0.28
- interaction score [40]: 0.273
- interaction score [41]: -1.08
- interaction score [42]: -0.771

Binder: DKNQQLKQKIQELEQEIQELEWENQELEQ [4H3843-bN]
- interaction score [25]: -1.28
- interaction score [26]: -1.58
- interaction score [27]: -0.609
- interaction score [28]: -1.05
- interaction score [30]: -0.816
- interaction score [32]: -1.71
- interaction score [34]: -0.869
- interaction score [35]: -1.23
- interaction score [36]: -1.31
- interaction score [37]: -2.09
- interaction score [38]: -0.63
- interaction score [39]: -1.56

Continued, values first:

- interaction score [1]: -1.92
- interaction score [2]: -1.59
- interaction score [3]: -1.77
- interaction score [4]: -1.49
- interaction score [5]: -1.48
- interaction score [6]: -1.72
- interaction score [7]: -1.98
- interaction score [8]: -2.08
- interaction score [9]: -1.71
- interaction score [10]: -1.89
- interaction score [11]: -1.72
- interaction score [12]: -1.33
- interaction score [13]: -1.68
- interaction score [14]: -1.66
- interaction score [15]: -1.68
Binder: DKAAALKAKAAALKAKNAALKAENAALEG [APC3354-AA]

- interaction score [16]: -0.0241
- interaction score [17]: -0.475
- interaction score [18]: -0.878
- interaction score [19]: -0.703
- interaction score [20]: -0.634
- interaction score [21]: 1.96
- interaction score [22]: -2.21
- interaction score [23]: -0.115
- interaction score [24]: -1.19
Binder: DKNAALEAEIAALEAKNAALKAKIAALKG [4H3134-AA]
